# T1: N-terminal FLAG-tagged fusion protein including most of the extracellular region of human IL-13Rα1 (human, UniProt P78552 29-343)
# T1 construct: also called hIL-13Rα1.ECR; Human IL-13Rα1.ECR
# T1 sequence: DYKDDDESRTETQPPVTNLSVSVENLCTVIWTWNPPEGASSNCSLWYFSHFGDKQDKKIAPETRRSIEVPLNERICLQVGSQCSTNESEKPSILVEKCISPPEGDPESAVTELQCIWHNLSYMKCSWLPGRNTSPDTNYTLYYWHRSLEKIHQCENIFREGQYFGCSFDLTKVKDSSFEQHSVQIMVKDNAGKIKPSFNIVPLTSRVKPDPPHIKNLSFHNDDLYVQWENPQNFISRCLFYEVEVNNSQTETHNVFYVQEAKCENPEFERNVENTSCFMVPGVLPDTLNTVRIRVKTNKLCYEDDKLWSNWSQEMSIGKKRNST
# T2: cynomolgus IL-13Rα1.ECR, N-terminal FLAG-tagged fusion protein (cynomolgus macaque, UniProt P78552 27-343 (human entry))
# T2 construct: also called cyIL-13Rα1; Cynomolgus IL13Rα.ECR; not shown: N-terminal FLAG tag from the pEFBOS-S-FLAG vector
# T2 chain: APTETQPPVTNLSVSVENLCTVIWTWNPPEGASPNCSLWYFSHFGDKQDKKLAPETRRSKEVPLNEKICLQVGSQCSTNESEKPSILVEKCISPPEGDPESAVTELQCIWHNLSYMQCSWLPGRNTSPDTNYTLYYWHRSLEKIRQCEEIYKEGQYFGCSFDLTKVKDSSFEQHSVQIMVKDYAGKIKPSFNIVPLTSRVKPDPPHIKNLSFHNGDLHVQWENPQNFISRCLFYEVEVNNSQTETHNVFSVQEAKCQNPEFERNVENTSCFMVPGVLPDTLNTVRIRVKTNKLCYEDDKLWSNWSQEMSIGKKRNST
# B1: monoclonal antibody 8B4 (antibody, V domains shown)
# VH: EVQVLESGGGLVQPGGSLRLSCAASGFTFSNYAMTWVRQAPGKGLEWVSTISGRGYSIYYADSVKGRFTISRDNSKNTVYLQMNSLRAEDTAVYYCAKEEGHWYFDVWGRGTLVTVSS
# VL: EIVLTQSPDFQSVTPKEKVTITCRASQSIGSSLHWYQQKPDQSPKLLIKYASQSFSGVPSRFSGSGSGTDFTLTINSLEAEDAAAYYCHQSSSLPYTFGQGTKLEIK
# B2: human monoclonal antibody 15F4 (antibody, V domains shown)
# VH: QVQLVESGGGVVQPGRSLRLSCAASGFTFSSYGMHWVRQAPGKGLEWVAVIWDDGSNKYYEVSVKGRFTISRDNSKNTLYLQMNSLRVEDTAVYYCARDSNNWYVGVFDIWGQGTMVTVSS
# VL: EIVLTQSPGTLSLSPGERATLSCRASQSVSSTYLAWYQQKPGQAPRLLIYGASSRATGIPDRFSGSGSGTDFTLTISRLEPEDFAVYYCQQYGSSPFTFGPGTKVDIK
# notes: also called mAb 15F4; hybridoma ATCC PTA-6935
# Columns and labels:
# [1] = biological target: T1, N-terminal FLAG-tagged fusion protein …; test: BIACORE, receptor ECR immobilized on CM5 chip, mAb in solution
# [2] = biological target: T2, cynomolgus IL-13Rα1.ECR, N-terminal …; test: as above
# [3] = biological target: T1, N-terminal FLAG-tagged fusion protein …; test: BIACORE, hIL-13Rα1.ECR immobilized on CM5 chip, mAb in solution, bivalent model
# Source text: BIACORE™-Based Studies. […] Ethanolamine (1.0 M), pH 8.0 was used to quench residual active esters post hIL-13Rα1.ECR immobilization.
# Sensorgrams generated were fitted to a bivalent ligand binding model to simultaneously derive association (kₐ) and dissociation (kd) rates and used to determine binding affinity (KD, Biaevaluation software, BIACORE™, Sweden).
Binder,Kd [1] [nM],Kd [2] [nM],Kd [3] [nM]
B1,4.6,0.59,–
B2,–,–,~2.17

# Reference: US20110052597A1 (CSL, published 2011)
